Measured values reported in the DeepSol protein solubility set.

Assay: soluble on expression in E. coli; label from the status in PepcDB or PDB records

| Sequence | soluble on expression in E. coli |
| --- | --- |
| ELRAKERKIIRDKEDGLNPQLADRMTLNELYDRFIEQKYDLKPSTKVNYLYMYNHFVRPTFGKRLIGKIKYSDVKKFYYRIILDEEMKANTLDSIHTQLHPAFQMAVRDGLLRQNPTDGLMAEIKKSHIWEDNPRHALTIPQQKAFMDYLKAHREYQGWVPIITVLLGTGMRIGECIGLRWDDLDFEKRIVSVNHTFIYRPDENRKSVKHISTPKTISGRRTIPMIDEVFNAFLDEYEIQKCIGFSSEEIDGYSNFVFVTATGTVYLPNAVNRAIERARVAYNKDEIEIAEKEDREPLIIPHF | not soluble |
| EMIHHAKNQLIMCSPYFIPDESMLEAVTSACYRGVRVELLVSEQADQFVVDHAQSSYYQTLLEAGVHIYRYHAPAVLHSKFLIADPHGVAVSVMGSSNMDMRSFGLNYEVSLMTLQGQLTHLLYELAETYKENSTELTLEEWNQRGIVRRYVDNIMKLTSALQ | not soluble |
| ENRDCYSLYRMNPADGKIQQLEVSEDLVNSFSLAQNAPVMVYYGQSASNSDRLYTMNTKKMKSSLLEDLSKDILKDVELGECKAWSFTNSRGDTIYGRYYLPPHFDANRKYPMIVNYYGGCSPVSRNFESRYPHHAYAALGYVVYVIEPSGATGFGQEFSARHVNTAGEGVAQDIIEGTKQFCKEHAFVNDKKIGCIGASYGGFMTQYLQTQTDIFAAAISHAGISDHTSYWGEGYWGYSYSEVSMANSYPWSNPDLFVKQSPLFNADKIHTPLLFLHGDADVNVPVGESIQMFTALKLLGRETAFVAVTGQDHHIVDYGKRIQWQNTIFAWFAKWLQ | not soluble |
| ENYLSIEKRLYENLAQESSHSASRLQFLLEHAQANTQGLSDFIGLLADKDDINNPEKLKTVLTNRIQRNPDFFGSAIAFKPNTFPNKKLFSPYVYRSGSGFNYLDIGADGYDYTDGNWDWWSKAINQVGGYWSKAYFDEGAGNVLMITYAVPFGVQPDYFGVTTVDLALDRLPEQLGIAPSRLVVLDDQGRLIFHSDKEKVLAASSSGWLDKQNIKNIAFATLLNDGQAGQASFVDDKGTVYLASVAEVAKLKWRVVVMVPKHELFASLLDDIA | soluble |
| EQKVYEQKTRQQVMLSAYQQKEKDIESILDMQKQNSKQRHDINNVLILISELIQDEKYSKALEVLDKYRTGYNNINVTEIVSNNIVLNYLLNRKINQCREAGIDMACYVLWNIAGVDDMDLYILLENLCDNAIEAAGQCEKPSIKLQIAEDNASMYIDIGNTTSGNVLNNNPHMNTTKKDKNMHGFGIMNIRDIIDKYNGTINYEQQGDNYLMCRCTLEKVCQ | not soluble |
| EQMQSEFFYTDRKKIKWSLPSQPKVDIVELELLVARFIGEEKATKCFEKFHSMNQTKDNKKFNEAILFHAENTLARVLGSASAKLVTSLAISSRGMAFDQVAKLVEDNSTQQLEFSRTVLQSAIENVSEGISVIDSELKLVAWNKQYLDIFSYPEAFIYIGCPISQLIHFNLSQQGYFAKDIDLRVK | not soluble |
| ERYGALAVPVGPGNLDIQTTFLVDLQSTVVCCTASMGLLLAEEVQRRNLRDKIAVRKVILGAERSSEAILAKIRECLGAESVHDITGLTEVYGPGTGLSCGVPGADGSI | not soluble |
| ESIYIQSPYFIPDQAFLDSIKIAALGGVDVNIMVPNKRDHPFVYWATLKNVASLLEAGVNVYHYDNGFLHSKTLVIDDEVASVGTANMDNRSFTLNFEVNAFIYDEGVARSLKQAFINDMKLSNKLTSEEYAKR | not soluble |
| ETRVRRTKTIVEITGLDARSGSLRINELYRWEPVHDNFKRAGDSYVLNEIMRARGWSPDKLFIEFKNREQILAYMTAKQIRDYVSVSLIVHMYATNPQLVMEAVGNDTLRDMVAHHS | not soluble |
| ETTSCEFSVSPSGLAFCDKVVGYGPEAVKGQLIKAHYVGKLENGKVFDSSYNRGKPLTFRIGVGEVIKGWDQGILGSDGIPPMLTGGKRTLRIPPELAYGDRGAGCKGGSCLIPPASVLLFDIEYIGKA | soluble |
| EVEGDKTVPNNVANAPFAGTEPLAKKLGLTEVNSLNTAVAATSSFVQFNAIASHSTFASPSGTLADVNHHAEMQKENADFLMDNALSDVSDTTVLK | not soluble |
| EVKEEDAFYSKKCKLFYKKDNEFKEKGIGTLHLKPTANQKTQLLVRADTNLGNILLNVLIPPNMPCTRTGKNNVLIVCVPNPPIDEKNATMPVTMLIRVKTSEDADELHKILLEKKDA | soluble |
| FEDVVGQEHITKTLQNALLQKKFSHAYLFSGPRGTGKTSAAKIFAKAVNCEHAPVDEPCNECAACKGITNGSISDVIEIDAASNNGVDEIRDIRDKVKFAPSAVTYKVYIIDEVHMLSIGAFNALLKTLEEPPEHCIFILATTEPHKIPLTIISRCQRFDFKRITSQAIVGRMNKIVDAEQLQVEEGSLEIIASAADGGMRDALSLLDQAISFSGDILKVEDALLITGAVSQLYIGKLAKSLHDKNVSDALETLNELLQQGKDPAKLIEDMIFYFRDMLLYKTAPGLEGVLEKVKVDETFRELSEQIPAQALYEMIDILNKSHQEMKWTNHPRIFFEVAVVKICQTSHQSAADLPEVDMLMKKIQQLEQEVERLKTTGIKAAAESPKKEAPRVPKGGKSNYKAPVGRIHEILKEATRPDLDLLRNSWGKLLAHLKQQNKVSHAALLNDSEPVAAGSAAFVLKFKYEIHCKMVAEDNNGVRTNLEQILESMLGKRMDLIGVPEAQWGKIREEFLEDHQQANEGSNEPAEEDPLIAEAKKLVGADLIEIKD | not soluble |
| FFALDYKRTEYVQYEDDEYYYYVKAVPKLNVASEDVRIKHINAKKTKKTSDIRDMKKTSSHRAESGYQAASAEEDDDILFYDNDDK | not soluble |
| FGTFKSAITDYHGYEYKNHGYGLALTDTDLLGGSSGSLVFNQDKKISSIYSAATESDSVGYAQLLPVPKDV | not soluble |
| FGYIVELNWKLSKILNCQPEYVYPKLDELLGCLLTKKPLHEYGMKDEEVRGFAESVLKTQQRLLANNYVELTVDEIEGIYRRLY | not soluble |
| FHLGKCPNPPVQENFDVNKYPGRWYEIEKIPTTFENGRCIQANYSLMENGKIKVLNQELRADGTVNQIEGEATPVNLTEPAKLEVKFSWFMPSAPYHILATDYENYALVYSCTSISQSFHVDFAWILARNVALPPETVDSLKNILTSNNIDVKKMTVTDQVNCPKLSAHHHHHH | soluble |
| FLDKPTLLSPEELKAASRGNGEYALYYEGRNGWWQYDERTSRELEDAFSKGKRTSEMLIAGFLYVADLENMGQYRRNEHGRRRKIKRDIIDIPKKGV | soluble |
| FLVPPTVEQKTRPFTLPNLPLSSLSNSRAPLPISSMGISPDNVQSVQFQNGRCTLDGRLVGTTPVSLSHVAKIRGTSNGTVINLTELDGTPFHPFEGPAPIGFPDLGGCDWHINMTQFGHSSQTQYDVDTTPDTFVPHLGSIQANGIGSGNYVGVLSWISPPSHPSGSQVDLWKIPNYGSSITEATHLAPSVYPPGFGEVLVFFMSKMPGPGAYNLPCLLPQEYISHLASEQAPTVGEAALLHYVDPDTGRNLGEFKAYPDGFLTCVPNGASSGPQQLPINGVFVFVSWVSRFYQLKPVGTASSARGRLGLRR | soluble |
| FMFKHIIARTPARSLVDGLTSSHLGKPDYAKALEQHNAYIRALQTCDVDITLLPPDERFPDSVFVEDPVLCTSRCAIITRPGAESRRGETEIIEETVQRFYPGKVERIEAPGTVEAGDIMMVGDHFYIGESARTNAEGARQMIAILEKHGLSGSVVRLEKVLHLKTGLAYLEHNNLLAAGEFVSKPEFQDFNIIEIPEEESYAANCIWVNERVIMPAGYPRTREKIARLGYRVIEVDTSEYRKIDGGVSSMSLRF | soluble |
| FNKIKDSVKQKIDSMGDKGTYGVSASHPLAVEEGMKVLKNGGSAVDAAIVVSYVLGVVELHASGIGGGGGMLIISKDKETFIDYRETTPYFTGNQKPHIGVPGFVAGMEYIHDNYGSLPMGELLQPAINYAEKGFKVDDSLTMRLDLAKPRIYSDKLSIFYPNGEPIETGETLIQTDLARTLKKIQKEGAKGFYEGGVARAISKTAKISLEDIKGYKVEVRKPVKGNYMGYDVYTAPPPFSGVTLLQMLKLAEKKEVYKDVDHTATYMSKMEEISRIAYQDRKKNLGDPNYVNMDPNKMVSDKYISTMKNENGDALSEAEHES | soluble |
| FPQLPPAPDDYPTFPDTSTWPVVFPELPAAPYGGPCRPPQHTSKAAAPRIPADRLPNHVAIVMDGNGRWATQRGLARTEGHKMGEAVVIDIACGAIELGIKWLSLYAFSTENWKRSPEEVRFLMGFNRDVVRRRRDTLKKLGVRIRWVGSRPRLWRSVINELAVAEEMTKSNDVITINYCVNYGGRTEITEATREIAREVAAGRLNPERITESTIARHLQRPDIPDVDLFLRTSGEQRSSNFMLWQAAYAEYIFQDKLWPDYDRRDLWAACEEYASRTRRFGSA | soluble |
| FRRTGIRRIIIGQDQILFESSDNTVQIFPLNTLKSVDLYSTYDEMIELKAHRQPKITLSKSWIKRKDYRFIVSYLRERSATSGYKYTDYR | not soluble |
| FSDAFETAFFSVSNIGLHARAYKDKLFVHTASLRSGNPYKQVDLLVLDAKGETVLQGATDDNGNALLNYTLNAGHVLVSRNGRDISILPFNQPALDLSEFAVAGRENPWFDVFAWSGRDLYRPGEMLRISALLRDRDGKPVKPQPVFLRLKQPDGKTFRETRLQPAEQGYLEFTQKIPSDAPTGRWRVEFRTDPASKEAVQGLAVRVEEFLPERMKLELSSAQPVLRAKAPFTLTADAAYLYGAPAAGNRFTANLAVAVEQHPLDNMPGWFFGDATL | not soluble |
| FSQHVSANLNLPSPSLNTPLNWLLTSVDEVMFNQQLHGSAVHINCAFPEPLYSDGEKSAYQSYLSSVEAWRKGGQTYTQRFVSPSFRDIPFCADRKGVVVIGSLSAEHAQEAKAFAQQMGWPVLADPQSGVSSDWSHYDLWLQQPKLASQLDECDLVLQFGSRIISKRLNQWINKQVSQSQQGRDVQYWFISPSLSRDNQTHLPQLHWVASPKSWVERVDVKSSSTQGWADGLLTDIAHVRAHISDEFLFSSASTLNEIALAADIEERTQSVDVFLGNSLFVRLVDMFGRLNTEVFTNRGASGIDGLFATASGVQRSRGKPLLMYIGDTSALYDLNSLALFSRNDLPSVLVVTNNDGGAIFDMLPVPQEHRTAYYQMPHGYQFEHAAKQFGLKYEKPTTLQMYQAMVADHLSSGQGTMLVEVQTPPSQAAELIKAFNKSLHASL | not soluble |
| GAKQVDVHDPVMTREGDTWYLFSTGPGITIYSSKDRVNWRYSDRAFATEPTWAKRVSPSFDGHLWAPDIYQHKGLFYLYYSVSAFGKNTSAIGVTVNKTLNPASPDYRWEDKGIVIESVPQRDLWNAIAPAIIADDHGQVWMSFGSFWGGLKLFKLNDDLTRPAEPQEWHSIAKLERSVLMDDSQAGSAQIEAPFILRKGDYYYLFASWGLCCRKGDSTYHLVVGRSKQVTGPYLDKTGRDMNQGGGSLLIKGNKRWVGLGHNSAYTWDGKDYLVLHAYEAADNYLQKLKILNLHWDGEGWPQVDEKELDSYISQRLK | soluble |
